These are literature values, as cited in paper PMC3079778.

As usually defined, the Kd is a measure of binding affinity in units of concentration.

Data set [1] addresses CYP2B4 (Oryctolagus cuniculus) (UniProt P00178). Put plainly: FRET.
The target of data set [2] is CYP1A2 (Oryctolagus cuniculus) (UniProt P00187). The data set can be described thus: FRET.
UniProt P00187, sequence (P00187 2-516): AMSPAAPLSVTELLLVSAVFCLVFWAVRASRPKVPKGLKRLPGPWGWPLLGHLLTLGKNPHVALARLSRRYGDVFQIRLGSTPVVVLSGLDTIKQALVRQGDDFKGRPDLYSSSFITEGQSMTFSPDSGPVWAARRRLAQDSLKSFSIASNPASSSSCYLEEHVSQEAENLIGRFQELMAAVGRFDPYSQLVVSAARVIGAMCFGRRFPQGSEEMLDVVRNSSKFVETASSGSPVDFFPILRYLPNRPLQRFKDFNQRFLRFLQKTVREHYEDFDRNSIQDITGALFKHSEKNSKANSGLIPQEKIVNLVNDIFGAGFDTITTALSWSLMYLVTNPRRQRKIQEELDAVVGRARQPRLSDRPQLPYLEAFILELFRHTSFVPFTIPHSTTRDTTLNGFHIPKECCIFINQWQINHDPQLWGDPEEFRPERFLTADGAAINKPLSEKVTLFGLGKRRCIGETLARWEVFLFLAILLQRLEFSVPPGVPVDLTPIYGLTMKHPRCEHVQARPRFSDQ

UniProt P00178, sequence (P00178 whole entry): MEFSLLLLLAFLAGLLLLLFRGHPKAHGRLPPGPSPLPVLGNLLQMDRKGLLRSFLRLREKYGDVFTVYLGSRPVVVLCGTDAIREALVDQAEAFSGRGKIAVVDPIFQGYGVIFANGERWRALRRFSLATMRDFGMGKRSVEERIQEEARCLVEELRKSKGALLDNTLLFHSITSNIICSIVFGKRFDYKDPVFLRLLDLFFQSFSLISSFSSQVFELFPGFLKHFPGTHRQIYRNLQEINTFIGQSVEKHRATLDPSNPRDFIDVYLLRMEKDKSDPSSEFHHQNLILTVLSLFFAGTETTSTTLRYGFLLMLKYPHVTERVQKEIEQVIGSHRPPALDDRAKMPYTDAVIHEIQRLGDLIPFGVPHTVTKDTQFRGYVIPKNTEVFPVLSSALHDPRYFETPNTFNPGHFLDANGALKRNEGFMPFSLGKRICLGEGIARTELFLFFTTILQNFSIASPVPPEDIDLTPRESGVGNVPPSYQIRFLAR

In the case of CPR (from UniProt P00389), the Kd in data set [1] and in data set [2] was 40 nM each time.
